Measurements: PMC6648343, “Remodeling and destabilization of chromosome 1 pericentromeric heterochromatin by SSX proteins” (Nucleic Acids Research, 2019)

Biological target: the molecule itself
Assay: cross-linking; recombinant SSX2 diluted to indicated concentrations in 20 mM PBS (pH 7.4), 50 mM NaCl; 0.1% glutaraldehyde, 2 min at 37°C, quenched with glycine; oligomerization analysed by Western blotting

B1: recombinant SSX2 (natural protein, UniProt Q16385 1-188, looked up)
chain: MNGDDAFARRPTVGAQIPEKIQKAFDDIAKYFSKEEWEKMKASEKIFYVYMKRKYEAMTKLGFKATLPPFMCNKRAEDFQGNDLDNDPNRGNQVERPQMTFGRLQGISPKIMPKKPAEEGNDSEEVPEASGPQNDGKELCPPGKPTTSEKIHERSGPKRGEHAWTHRLRERKQLVIYEEISDPEEDDE
notes: SSX2; GenBank CAA60111.1 is printed for SSX2 in the structure modelling; also called recombinant, purified SSX2; source: recombinant, purified
B1: binds.
